Measured values taken from article PMC11352979, “The mycobacterium lipid transporter MmpL3 is dimeric in detergent solution, SMALPs and reconstituted nanodiscs†” (RSC Chemical Biology, 2024).

Biological target: the molecule itself
Test: SEC + native gel or EMSA

B1: C-terminally truncated Mycobacterium tuberculosis MmpL3 (ΔC Mtb-MmpL3, aa 1–753) (domain or fragment)
chain: MFAWWGRTVYRYRFIVIGVMVALCLGGGVFGLSLGKHVTQSGFYDDGSQSVQASVLGDQVYGRDRSGHIVAIFQAPAGKTVDDPAWSKKVVDELNRFQQDHPDQVLGWAGYLRASQATGMATADKKYTFVSIPLKGDDDDTILNNYKAIAPDLQRLDGGTVKLAGLQPVAEALTGTIATDQRRMEVLALPLVAVVLFFVFGGVIAAGLPVMVGGLCIAGALGIMRFLAIFGPVHYFAQPVVSLIGLGIAIDYGLFIVSRFREEIAEGYDTETAVRRTVITAGRTVTFSAVLIVASAIGLLLFPQGFLKSLTYATIASVMLSAILSITVLPACLGILGKHVDALGVRTLFRVPFLANWKISAAYLNWLADRLQRTKTREEVEAGFWGKLVNRVMKRPVLFAAPIVIIMILLIIPVGKLSLGGISEKYLPPTNSVRQAQEEFDKLFPGYRTNPLTLVIQTSNHQPVTDAQIADIRSKAMAIGGFIEPDNDPANMWQERAYAVGASKDPSVRVLQNGLINPADASKKLTELRAITPPKGITVLVGGTPALELDSIHGLFAKMPLMVVILLTTTIVLMFLAFGSVVLPIKATLMSALTLGSTMGILTWIFVDGHFSKWLNFTPTPLTAPVIGLIIALVFGLSTDYEVFLVSRMVEARERGMSTQEAIRIGTAATGRIITAAALIVAVVAGAFVFSDLVMMKYLAFGLMAALLLDATVVRMFLVPSVMKLLGDDCWWAPRWARRLQTRIGLGEIHLPD
notes: also called Mtb-MmpL3 ΔC; Mtb MmpL3 ΔC
binding result: binds
